Results reported in patent publication US8283180B2, “Periodic acid-schiff staining with detection in the infrared range” (Amicus Therapeutics, Inc., priority 2007, dated 2012).

Test system: PM-12 cells
Experiment: PAS staining of Pompe fibroblasts with IR fluorescence detection after diastase digestion
Assay type: cell-based, human
Conditions: 20,000 cells/well; 0.1% diastase, 5 to 60 minutes; detection at 800 nm; FIG. 2
Method: PM-11 Pompe fibroblasts were obtained from Dr. W. J. Kleijer, Department of Cell Biology & Genetics, Erasmus University, The Netherlands. PM-12 Pompe fibroblasts were purchased from Coriell (catalog #GM03329). CRL-2076 fibroblasts (negative control) were purchased from American Type Culture Collection (Manassas, Va.). All fibroblast lines were routinely cultured at 37° C., 5% CO2, in growth medium consisting of Dulbecco's Modified […] Medium containing 15% fetal bovine serum (Hyclone, Logan, Utah), 100 U/mL penicillin; 100 μg/mL streptomycin, and 2 mM L-glutamine.
Prior to the assay, borosilicate coverslip glass bottom 96-well black plates (Nunc; catalog #164588) are coated with superfibronectin (Sigma). […] Briefly, 100 μL of 5 μg/mL superfibronectin (Sigma) is pipetted into each well and the plate is incubated at 37° C. for 2 hours. […]
Following the overnight incubation, the plate is read on a laser-based Odyssey IR scanner (Li-Cor, Inc.) at emission wavelengths of 700 nm (near-IR) or 800 nm (IR). The detector counts IR and near-IR fluorescence emissions independently or simultaneously from the samples, and reports these counts as arbitrary units. The detector scans across an entire microtiter plate, thus can read two fluorophores from any microtiter formatted sample array (96-well, 384-well, or other) within a few minutes. […]

B1: diastase: α-amylase type VI-B from porcine pancreas; breaks down glycogen, used as negative control for PAS staining (protein, UniProt P00690 16-511, looked up)
Pancreatic alpha-amylase: QYAPQTQSGRTSIVHLFEWRWVDIALECERYLGPKGFGGVQVSPPNENIVVTNPSRPWWERYQPVSYKLCTRSGNENEFRDMVTRCNNVGVRIYVDAVINHMCGSGAAAGTGTTCGSYCNPGNREFPAVPYSAWDFNDGKCKTASGGIESYNDPYQVRDCQLVGLLDLALEKDYVRSMIADYLNKLIDIGVAGFRIDASKHMWPGDIKAVLDKLHNLNTNWFPAGSRPFIFQEVIDLGGEAIQSSEYFGNGRVTEFKYGAKLGTVVRKWSGEKMSYLKNWGEGWGFMPSDRALVFVDNHDNQRGHGAGGASILTFWDARLYKVAVGFMLAHPYGFTRVMSSYRWARNFVNGQDVNDWIGPPNNNGVIKEVTINADTTCGNDWVCEHRWRQIRNMVWFRNVVDGQPFANWWANGSNQVAFGRGNRGFIVFNNDDWQLSSTLQTGLPGGTYCDVISGDKVGNSCTGIKVYVSSDGTAQFSISNSAEDPFIAIHAESKL
- time-dependent decrease in PAS stain IR fluorescence signal: about 2 fold
